# Results as given in PMC7432317, “Structural Analysis of the SANT/Myb Domain of FLASH and YARP Proteins and Their Complex with the C-Terminal Fragment of NPAT by NMR Spectroscopy and Computer Simulations” (International Journal of Molecular Sciences, 2020).
# T1: C-terminal fragment of FLICE-associated huge protein (FLASH), residues 1923-1982 (human, UniProt Q9UKL3 1923-1982)
# T1 construct: FLASH (FLICE-associated huge protein), residues 1923-1982; residue 1982 is the C-terminal amino acid of the protein; Uniformly 15N- or 13C,15N-labelled for NMR; also called FLASH fragment; SANT/Myb domain of FLASH; source: E. coli BL21 (DE3), pET28a, minimal M9 media, purified (nickel beads, SEC Superdex 75)
# T1 sequence (looked up): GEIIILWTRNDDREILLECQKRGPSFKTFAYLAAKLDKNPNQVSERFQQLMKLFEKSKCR
# Target: T1, C-terminal fragment of FLICE-associated …
# Test: NMR titration; 1H-15N HSQC of 15N-labelled FLASH fragment (300 uM) with step-wise addition of the NPAT peptide (150 uM, two fold molar excess of FLASH analysed; equimolar mixtures precipitated); 25 mM TRIS-HCl, 200 mM KCl, pH 6.2, 50 mM Arg+Glu, 40 mM TCEP, 298 K
# Conditions: both partners purified
binder,measurement,value
"KKKKIKKKKLPSSFPAGMDVDKFLLSLHYDE (Free N-terminus, carboxyl at C-terminus; also called C-terminal NPAT peptide; source: synthetic peptide (Fmoc solid phase synthesis, RP-HPLC purified)) [NPAT peptide, the last 31 residues of NPAT (1397-1427)]",binding result,binds
